Measurements as given in US20110229556A1, “LIPID-COATED POLYMER PARTICLES FOR IMMUNE STIMULATION” (Massachusetts Institute of Technology, priority 2010, published 2011).
Entries after “also recorded” stand apart in the source; their conditions may differ.

Assays:
OVA-specific serum IgG = experiment: Serum total anti-OVA IgG ELISA after s.c. immunization; type: in vivo, BALB/c or C57B1/6 mice
Description: Antibody titer measurements. Total IgG titers from sera were measured using an ELISA by adsorbing OVA to flat-bottom transparent 96-well plates at room temperature overnight, blocking overnight with bovine serum albumin, adding serially-diluted serum (starting from a minimal dilution of 200×) for 2 hr, and then detecting bound OVA-specific IgG antibody using HRP-labeled anti-mouse IgG (Bio-Rad). Plates were washed between each step using 0.05% Tween-20 in PBS. HRP developed with tetramethylbenzidine was measured using a Molecular Devices SpectraMax Microplate Reader. Monoclonal mouse anti-OVA IgG1 (clone OVA-14, Sigma-Aldrich, St. Louis, Mo.) was included as a standard reference in each assay. Endpoint titers were defined as the highest dilution at which immunized serum ELISA signal exceeded the average+2 standard deviations of pre-immune sera analyzed in parallel. To interpret our titer values in more physiological terms, we used OVA-14 as a standard to determine the concentration of OVA-specific IgG as equivalents of this monoclonal antibody.

[1] = tested on: naïve OT-I (CD8+) T-cells; experiment: Priming of naïve OT-I T-cells by particle-pulsed splenic DCs (CFSE dilution); type: cell-based, mice; conditions: DCs pulsed with 10,000-fold higher doses of soluble OVA than the particle dose, with or without MPLA; not shown
Description: Responses of naïve CD4^+ or CD8^+ T-cells transgenically expressing T cell receptors specific for OVA-derived peptides were assessed by in vitro co-culture of OT-II or OT-I primary T-cells with particle-pulsed DCs. Primary dendritic cells were isolated from spleens of C57B1/6 mice by digesting spleens with collagenase and isolating DCs using a CD11c^+ magnetic bead isolation kit (Miltenyi Biotec). In parallel, naïve CD4^+ T-cells or CD8+ T-cells were isolated from OT-II or OT-I TCR-transgenic mice, respectively (Jackson Laboratories), and labeled with CFSE to trace cell division following the manufacturer's instructions. OVA-loaded particles with post-inserted MPLA or soluble OVA/MPLA were added to splenic DCs (12,500 cells/well) at titrated cell:antigen ratios (starting from 40:1 particles:DC, corresponding to 6.2 μg particles), and incubated for 3 hr in a total volume of 150 μL/well at 37° C. and 5% CO2. CFSE-labeled OT-I or OT-II cells (50,000 cells/well) were then added to DCs in a volume of 50 μL complete RPMI media. This total culture volume of 200 μL/well was incubated for 3 days at 37° C. and 5% CO2 to allow proliferation of T-cells, and CFSE dilution was then measured by flow cytometry.

OVA-specific IgG = experiment: Avidity of OVA-specific IgG (ELISA with 6M urea wash); type: in vivo, BALB/c mice; conditions: BALB/c, 10 ng OVA, boost day 21, day 28 sera, 6M urea 10 min
Description: The avidity of IgG responses to immunization was measured using an ELISA analysis of serum binding in the presence of urea using a commonly reported procedure from the literature. Serum titer analysis was conducted in duplicate assay plates until serum adsorption was complete. At this point, one plate was incubated in the presence of 6M urea for 10 min followed by washing and detection of bound IgG on both plates as above. Avidity indices were defined as the serum dilution of urea-treated samples where the ELISA absorbance was 0.5 divided by the dilution of untreated samples giving the same absorbance.

## CCCCCCCCCCCCCCCCCCCCCCCCCC(=O)N[C@@H](CO[C@H]1O[C@H](CO)[C@H](O)[C@H](O)[C@H]1O)[C@H](O)[C@H](O)CCCCCCCCCCCCCC [αGC solution, α-galactosylceramide, reference compound]
OVA-specific serum IgG; BALB/c, 2 ng OVA on microparticles with 10 ng, 100 ng, or 1 μg αGC (on particles or in solution 10 min before at same site)
  IgG titers 14 days after a single immunization, αGC dose titration: only a fraction of mice had detectable titers; also recorded: equally effective

B1: ovalbumin (protein, UniProt P01012 2-386, looked up)
Ovalbumin: GSIGAASMEFCFDVFKELKVHHANENIFYCPIAIMSALAMVYLGAKDSTRTQINKVVRFDKLPGFGDSIEAQCGTSVNVHSSLRDILNQITKPNDVYSFSLASRLYAEERYPILPEYLQCVKELYRGGLEPINFQTAADQARELINSWVESQTNGIIRNVLQPSSVDSQTAMVLVNAIVFKGLWEKAFKDEDTQAMPFRVTEQESKPVQMMYQIGLFRVASMASEKMKILELPFASGTMSMLVLLPDEVSGLEQLESIINFEKLTEWTSSNVMEERKIKVYLPRMKMEEKYNLTSVLMAMGITDVFSSSANLSGISSAESLKISQAVHAAHAEINEAGREVVGSAEAGVDAASVSEEFRADHPFLFCIKHIATNAVLFFGRCVSP
notes: model protein antigen ovalbumin dissolved in saline
[1]
  OT-I proliferation: minimal OT-I proliferation
OVA-specific serum IgG; BALB/c, 10 ng OVA s.c. prime, boost with same dose 3 weeks later, 1.3 μg MPLA and 600 ng αGC where used
  anti-OVA IgG titers: only a subset of mice responded
OVA-specific serum IgG; BALB/c, 10 ng OVA s.c., boost 3 weeks later
  time serum titers were maintained: not sustained in a majority of the mice
OVA-specific IgG
  avidity: IgG binding following urea washes: no binding

B2: SAT(PEG)4-modified OVA: ovalbumin modified with the heterobifunctional cross-linker SAT(PEG)4 for particle coupling (protein, UniProt P01012 2-386, looked up)
Ovalbumin: B1 Ovalbumin
modifications: SAT(PEG)4 cross-linker modified
notes: ovalbumin modified with the heterobifunctional cross-linker SAT(PEG)4 for particle coupling
OVA-specific serum IgG; data not shown
  influence of SAT(PEG)4 modification on the protein's immunogenicity: no significant influence
